# Measured values reported in the supplement of paper PMC9112550, “Optimization of the antimicrobial peptide Bac7 by deep mutational scanning” (BMC Biology, 2022).
# System: Escherichia coli TOP10
# Test: shrunken log2 fold change of peptide-encoding DNA abundance (4.5 h post-induction vs induction); higher = less antimicrobial activity (less host growth inhibition)
# Conditions: time post-induction: 4.5 h; library: site-saturation at positions 5, 18, 19, 20
# 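Also: peptides expressed intracellularly from a pBAD plasmid library in pooled LB shake-flask culture, induced with 0.3% L-arabinose, DNA abundance read by NGS, three biological replicates, DESeq2 with apeglm shrinkage.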
row,Sequence,shrunken log2 fold change
1,RRIRSRPPRLPRPRPRPAHEPRP,-0.074
2,RRIRSRPPRLPRPRPRPAKAPRP,0.000841
3,RRIRSRPPRLPRPRPRPAKPPRP,-0.146
4,RRIRSRPPRLPRPRPRPAKQPRP,0.134
5,RRIRSRPPRLPRPRPRPALHPRP,0.16
6,RRIRSRPPRLPRPRPRPALSPRP,0.497
7,RRIRSRPPRLPRPRPRPAMQPRP,-0.173
8,RRIRSRPPRLPRPRPRPAMWPRP,0.0276
9,RRIRSRPPRLPRPRPRPANAPRP,0.438
10,RRIRSRPPRLPRPRPRPAPGPRP,0.54
11,RRIRSRPPRLPRPRPRPAQFPRP,-0.114
12,RRIRSRPPRLPRPRPRPAQGPRP,0.19
13,RRIRSRPPRLPRPRPRPARGPRP,0.574
14,RRIRSRPPRLPRPRPRPARMPRP,-0.0672
15,RRIRSRPPRLPRPRPRPASIPRP,7.54e-05
16,RRIRSRPPRLPRPRPRPATMPRP,0.00669
17,RRIRSRPPRLPRPRPRPAVVPRP,-0.0261
18,RRIRSRPPRLPRPRPRPAWGPRP,0.51
19,RRIRSRPPRLPRPRPRPAWPPRP,0.49
20,RRIRSRPPRLPRPRPRPCACPRP,-0.0721
21,RRIRSRPPRLPRPRPRPCCLPRP,-0.125
22,RRIRSRPPRLPRPRPRPCCQPRP,0.0545
23,RRIRSRPPRLPRPRPRPCEFPRP,-0.227
24,RRIRSRPPRLPRPRPRPCFEPRP,-0.0192
25,RRIRSRPPRLPRPRPRPCFFPRP,-0.248

row,Sequence,shrunken log2 fold change
1,RRIRSRPPRLPRPRPRPCFLPRP,-0.642
2,RRIRSRPPRLPRPRPRPCFPPRP,-0.747
3,RRIRSRPPRLPRPRPRPCGWPRP,0.148
4,RRIRSRPPRLPRPRPRPCIAPRP,-0.22
5,RRIRSRPPRLPRPRPRPCLYPRP,-0.198
6,RRIRSRPPRLPRPRPRPCMTPRP,-0.102
7,RRIRSRPPRLPRPRPRPCQIPRP,-0.231
8,RRIRSRPPRLPRPRPRPCQWPRP,-0.134
9,RRIRSRPPRLPRPRPRPCRCPRP,-0.358
10,RRIRSRPPRLPRPRPRPCRFPRP,-0.0924
11,RRIRSRPPRLPRPRPRPCRGPRP,-0.128
12,RRIRSRPPRLPRPRPRPCSQPRP,-0.214
13,RRIRSRPPRLPRPRPRPCTGPRP,-0.0404
14,RRIRSRPPRLPRPRPRPCVEPRP,0.0654
15,RRIRSRPPRLPRPRPRPCYAPRP,-0.478
16,RRIRSRPPRLPRPRPRPCYTPRP,-0.0751
17,RRIRSRPPRLPRPRPRPDALPRP,0.353
18,RRIRSRPPRLPRPRPRPDCGPRP,0.0769
19,RRIRSRPPRLPRPRPRPDCPPRP,0.0922
20,RRIRSRPPRLPRPRPRPDEKPRP,-0.0769
21,RRIRSRPPRLPRPRPRPDFEPRP,-0.0501
22,RRIRSRPPRLPRPRPRPDFIPRP,0.00191
23,RRIRSRPPRLPRPRPRPDIEPRP,0.0454
24,RRIRSRPPRLPRPRPRPDKAPRP,-0.111
25,RRIRSRPPRLPRPRPRPDKKPRP,-0.158

row,Sequence,shrunken log2 fold change
1,RRIRSRPPRLPRPRPRPDKNPRP,-0.105
2,RRIRSRPPRLPRPRPRPDLFPRP,0.256
3,RRIRSRPPRLPRPRPRPDLTPRP,0.0442
4,RRIRSRPPRLPRPRPRPDLWPRP,0.349
5,RRIRSRPPRLPRPRPRPDMEPRP,0.0134
6,RRIRSRPPRLPRPRPRPDMHPRP,-0.118
7,RRIRSRPPRLPRPRPRPDMKPRP,-0.43
8,RRIRSRPPRLPRPRPRPDMLPRP,0.304
9,RRIRSRPPRLPRPRPRPDMPPRP,-0.0754
10,RRIRSRPPRLPRPRPRPDMTPRP,0.154
11,RRIRSRPPRLPRPRPRPDPIPRP,-0.0376
12,RRIRSRPPRLPRPRPRPDPLPRP,0.0174
13,RRIRSRPPRLPRPRPRPDPQPRP,0.282
14,RRIRSRPPRLPRPRPRPDQCPRP,-0.209
15,RRIRSRPPRLPRPRPRPDRRPRP,-0.0434
16,RRIRSRPPRLPRPRPRPDSLPRP,0.00187
17,RRIRSRPPRLPRPRPRPDTPPRP,-0.0107
18,RRIRSRPPRLPRPRPRPDTQPRP,-0.00981
19,RRIRSRPPRLPRPRPRPDTSPRP,-0.0998
20,RRIRSRPPRLPRPRPRPDVLPRP,-0.104
21,RRIRSRPPRLPRPRPRPDWIPRP,-0.337
22,RRIRSRPPRLPRPRPRPEADPRP,0.688
23,RRIRSRPPRLPRPRPRPEAQPRP,0.438
24,RRIRSRPPRLPRPRPRPEDTPRP,-0.00541
25,RRIRSRPPRLPRPRPRPEEKPRP,0.206
